Source: IntAct's records for PubMed 22660413

B1: Syntenin-1 (Mus musculus), O08992 (parent)
chain: MSLYPSLEDLKVDKVIQAQTAYSANPASQAFVLVDASAALPPDGNLYPKLYPELSQYMGLSLNEAEICESMPMVSGAPAQGQLVARPSSVNYMVAPVTGNDAGIRRAEIKQGIREVILCKDQDGKIGLRLKSIDNGIFVQLVQANSPASLVGLRFGDQVLQINGENCAGWSSDKAHKVLKQAFGEKITMTIRDRPFERTVTMHKDSSGHVGFIFKSGKITSIVKDSSAARNGLLTDHHICEINGQNVIGLKDAQIADILSTAGTVVTITIMPTFIFEHIIKRMAPSIMKSLMDHTIPEV
partner: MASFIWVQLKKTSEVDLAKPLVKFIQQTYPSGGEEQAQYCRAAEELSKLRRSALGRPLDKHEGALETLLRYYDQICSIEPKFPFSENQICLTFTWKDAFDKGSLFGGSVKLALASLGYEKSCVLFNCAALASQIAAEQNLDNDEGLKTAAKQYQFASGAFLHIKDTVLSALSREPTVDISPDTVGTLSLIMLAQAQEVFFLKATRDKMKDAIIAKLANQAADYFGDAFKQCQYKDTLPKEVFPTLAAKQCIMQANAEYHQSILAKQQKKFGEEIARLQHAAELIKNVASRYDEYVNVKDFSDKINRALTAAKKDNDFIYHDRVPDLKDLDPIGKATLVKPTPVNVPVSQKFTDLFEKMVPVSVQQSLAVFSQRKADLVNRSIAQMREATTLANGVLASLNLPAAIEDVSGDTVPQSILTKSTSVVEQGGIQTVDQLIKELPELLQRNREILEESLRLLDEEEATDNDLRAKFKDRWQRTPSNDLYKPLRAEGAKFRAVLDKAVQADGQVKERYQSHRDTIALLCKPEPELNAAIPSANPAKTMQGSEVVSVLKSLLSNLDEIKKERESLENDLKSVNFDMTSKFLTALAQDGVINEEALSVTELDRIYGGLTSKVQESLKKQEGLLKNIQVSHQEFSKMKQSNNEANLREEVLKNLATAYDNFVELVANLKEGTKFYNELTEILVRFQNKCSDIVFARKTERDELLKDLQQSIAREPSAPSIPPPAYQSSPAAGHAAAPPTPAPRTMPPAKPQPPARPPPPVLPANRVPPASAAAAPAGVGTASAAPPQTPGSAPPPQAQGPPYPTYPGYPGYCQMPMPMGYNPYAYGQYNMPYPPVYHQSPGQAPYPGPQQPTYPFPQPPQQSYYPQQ

Variants of: B1
Conditions: with pdc6i_mouse Pdcd6ip

Variant	effect of a mutation on the interaction
MSLAASLEDLKVDKVIQAQTAYSANPASQAFVLVDASAALPPDGNLAAKLAAELSQYMGLSLNEAEICESMPMVSGAPAQGQLVARPSSVNYMVAPVTGNDAGIRRAEIKQGIREVILCKDQDGKIGLRLKSIDNGIFVQLVQANSPASLVGLRFGDQVLQINGENCAGWSSDKAHKVLKQAFGEKITMTIRDRPFERTVTMHKDSSGHVGFIFKSGKITSIVKDSSAARNGLLTDHHICEINGQNVIGLKDAQIADILSTAGTVVTITIMPTFIFEHIIKRMAPSIMKSLMDHTIPEV [Y4A;P5A;Y47A;P48A;Y51A;P52A]	disrupting interaction

Variants of: B1
Conditions: with pdc6i_mouse Pdcd6ip
Remark: another data set of the same source

Variant	effect of a mutation on the interaction
MSLAASLEDLKVDKVIQAQTAYSANPASQAFVLVDASAALPPDGNLAAKLAAELSQYMGLSLNEAEICESMPMVSGAPAQGQLVARPSSVNYMVAPVTGNDAGIRRAEIKQGIREVILCKDQDGKIGLRLKSIDNGIFVQLVQANSPASLVGLRFGDQVLQINGENCAGWSSDKAHKVLKQAFGEKITMTIRDRPFERTVTMHKDSSGHVGFIFKSGKITSIVKDSSAARNGLLTDHHICEINGQNVIGLKDAQIADILSTAGTVVTITIMPTFIFEHIIKRMAPSIMKSLMDHTIPEV [Y4A;P5A;Y47A;P48A;Y51A;P52A]	disrupting interaction
MSLYPSLEDLKVDKVIQAQTAYSANPASQAFVLVDASAALPPDGNLYPKLAAELSQYMGLSLNEAEICESMPMVSGAPAQGQLVARPSSVNYMVAPVTGNDAGIRRAEIKQGIREVILCKDQDGKIGLRLKSIDNGIFVQLVQANSPASLVGLRFGDQVLQINGENCAGWSSDKAHKVLKQAFGEKITMTIRDRPFERTVTMHKDSSGHVGFIFKSGKITSIVKDSSAARNGLLTDHHICEINGQNVIGLKDAQIADILSTAGTVVTITIMPTFIFEHIIKRMAPSIMKSLMDHTIPEV [Y51A;P52A]	disrupting interaction
